For the assay, the target named is T1, Recombinant human LAG3-His (Sino Biological; catalogue No. 16498-H08H) (human, UniProt P18627 23-450).
T1 construct: also called human LAG3 His-tag protein; CD223
T1 sequence: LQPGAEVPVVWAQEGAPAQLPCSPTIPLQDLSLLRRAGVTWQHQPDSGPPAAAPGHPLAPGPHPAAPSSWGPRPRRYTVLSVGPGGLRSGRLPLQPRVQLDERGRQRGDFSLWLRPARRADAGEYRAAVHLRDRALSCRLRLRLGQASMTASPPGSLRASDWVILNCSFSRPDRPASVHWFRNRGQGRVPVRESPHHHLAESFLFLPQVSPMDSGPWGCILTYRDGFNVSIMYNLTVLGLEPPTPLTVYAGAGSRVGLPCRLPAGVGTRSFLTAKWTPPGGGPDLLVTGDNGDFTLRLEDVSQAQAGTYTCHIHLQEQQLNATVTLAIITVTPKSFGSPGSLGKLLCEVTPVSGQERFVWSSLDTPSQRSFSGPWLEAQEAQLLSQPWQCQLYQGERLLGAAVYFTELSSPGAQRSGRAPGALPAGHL
Put plainly: ELISA: antibody coated at 5 µg/mL, soluble human LAG3-His titrated (x-axis: Human LAG3, µg/ml), OD at 450nm. A general note: An ELISA detects its analyte on a solid surface through an enzyme-linked reagent.

B1: 2D12-2E3-N102D (antibody, V domains shown)
VH: EVQLVESGGGLVQPGRSLRLSCVASGDGMSDYDMHWVRQAPGKGLEWVSGIGWNSGTIDYADSVKGRFIISRDNAKNSLYLQMNSLRPEDTALYYCAKEILDYSWMSVYGMDVWGQGTTVTVSS
VL: DIQMTQSPSSLSASVGDRVTITCRASQNIGTYLNWYQQSPGKAPKLLIYGASSLHSGVPSRVSGSGSGTDFTLTINTLQPEDFATYFCQQSYNTPPTFGQGTKVEIK
notes: also called anti-LAG3 antibody 2D12-2E3-N102D
As usually defined, the EC50 (read off the curve) is the concentration at which the effect is half-maximal. Take B1: the “EC50 (read off the curve)” value was roughly 0.04 µg/mL.

Values taken from US20230147852A1 (SORRENTO THERAPEUTICS, published 2023).
